Among the data in paper PMC7608914, “Bridging of nucleosome-proximal DNA double-strand breaks by PARP2 enhances its interaction with HPF1” are Kd values, retold here.

What all share (conditions): protein: recombinant; (HisTrap purified); label: 6-FAM on 5' end of bottom strand; blunt
Data set [1] addresses T1, PARP2-QFRD (Homo sapiens, UniProt Q9UGN5-2 1-570, Q112R;F113D). Kind of data set: fluorescence polarization; 60 mM KCl, 8 mM MgCl2; FP/FRET: 50 mM Tris-HCl pH 8, 50 mM NaCl, 1 mM MgCl2, 0.1 mM EDTA, 0.1 mM TCEP, 0.01% NP-40, temperature not stated; EMSA: 20 mM Tris pH 7.5, 1 mM EDTA, 1 mM DTT, 4 C.
Data set [2] addresses T2, PARP2-WT (Homo sapiens, UniProt Q9UGN5-2 1-570). The data set is described as above.
The target in data set [3] is T1, PARP2-QFRD. Kind of data set: fluorescence polarization; 50 mM NaCl, 1 mM MgCl2; Hill 0.9; FP/FRET: 50 mM Tris-HCl pH 8, 50 mM NaCl, 1 mM MgCl2, 0.1 mM EDTA, 0.1 mM TCEP, 0.01% NP-40, temperature not stated; EMSA: 20 mM Tris pH 7.5, 1 mM EDTA, 1 mM DTT, 4 C. For orientation: Polarisation of emitted light reports the rotation of a fluorescent probe.
Data set [4] has as its target T2, PARP2-WT. Kind of data set: fluorescence polarization; 50 mM NaCl, 1 mM MgCl2; Hill 1.2; FP/FRET: 50 mM Tris-HCl pH 8, 50 mM NaCl, 1 mM MgCl2, 0.1 mM EDTA, 0.1 mM TCEP, 0.01% NP-40, temperature not stated; EMSA: 20 mM Tris pH 7.5, 1 mM EDTA, 1 mM DTT, 4 C.

B1: p18mer_fluorescein (dsDNA)
DNA 1: GGGTTGCGGCCGCTTGGG
DNA 2: CCCAAGCGGCCGCAACCC
modifications: 5'-phosphate on top strand
Usually Kd stands for the equilibrium constant for the complex coming apart. For the molecule B1, the dissociation constant Kd was ~240 nM in data set [1], ~240 nM in data set [2], 17.1 ± 1.8 nM in data set [3] and 11.1 ± 0.4 nM in data set [4].
